Reference: the supplement of paper PMC12764529
± gives the half width of the 95% confidence interval.

Tests used:
[1] = folding stability dG unfold from trypsin proteolysis; higher = more stable
Method in brief: (§1)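 Unfolding free energy was derived, per protease or combined, against a sequence-predicted unfolded-state K50 and a shared folded-state K50, starting from K50 inferred by Bayesian fitting of sequencing counts. Digestion with trypsin and chymotrypsin was carried out on designed mini-proteins under 80 residues without cysteine in a PA-tagged cDNA display construct. Only designs with AlphaFold2 dimer inter-PAE above 15 were kept.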

[2] = folding stability dG unfold from chymotrypsin proteolysis; higher = more stable
Method in brief: as §1

[3] = folding stability dG unfold (combined trypsin and chymotrypsin); higher = more stable
Method in brief: as §1

Sequence | folding stability dG unfold [1] | folding stability dG unfold [2] | folding stability dG unfold [3]
SAGGSAGGMKIVVEEVDEEKGYVRIRIEDPETKEEKEIVVKVKTPEEAEALAKKLAEAGYEVETSAGGSAGG [r6_796_TrROS_Hall] | 1.27 ± 0.045 kcal/mol | 1.79 ± 0.028 kcal/mol | 1.61 ± 0.087 kcal/mol
SKKVLFIEAKSEEELKAAVKALLDAGYDEIVVSSPEAAKALKELLPDVKVTLVEVKPEKKLSEEEKKKLKSA [r9_639_TrROS_Hall] | 0.505 ± 0.33 kcal/mol | 1.42 ± 0.096 kcal/mol | 1.05 ± 0.26 kcal/mol
SAGMDIELVVPIESPGSPEEIEKTVEELKEKLEKLGYKVEVSREIHPVGDKLVATITIKITAPPDLPLLSAG [r5_217_JUSTAS] | 3.49 ± 0.28 kcal/mol | 2.31 ± 0.095 kcal/mol | 2.85 ± 0.16 kcal/mol
SAGGSAGGSAGGKPITIKLEETGETATIDEDNGIITITNKDGSKYQITFKDGKLIIKKISAGGSAGGSAGGS [r10_568_TrROS_Hall] | 1.99 ± 0.076 kcal/mol | 3.1 ± 0.056 kcal/mol | 2.79 ± 0.097 kcal/mol
SAGGSAGGSADEEKLKELAEKLREAGYEVEVERYPDKVVIRVRNKKTGKTLELVFDSVEEALSAGGSAGGSA [r18_278_TrROS_Hall] | 4.24 ± 0.12 kcal/mol | 2.95 ± 0.096 kcal/mol | 3.92 ± 0.15 kcal/mol
SAGGSAGGSELNIEKIVVLDYDPETGLAYVKIFYGDGEVKEFKVKSLEELKEKFPDVEILEKGSAGGSAGGS [r12_403_TrMRF] | 3.64 ± 0.12 kcal/mol | 4.57 ± 0.084 kcal/mol | 4.43 ± 0.065 kcal/mol
SAKKKKPLPKIKKIKITITLKDGTKIEMEITKVEVLEDGTVKIKMKMKVIDKKTKKKYEFEIEIIIKLKSAG [r14_591_TrROS_Hall] | 2.96 ± 0.27 kcal/mol | 3.28 ± 0.17 kcal/mol | 3.27 ± 0.21 kcal/mol
SPPITFFRVPAEYDEPNGKRTIKVRIWRIRDVEKDPNGGPKMDMEPQPVTFKLPVPPGAPIPPGDWIFAFSA [r9_277_TrROS] | 1.57 ± 0.16 kcal/mol | 0.315 ± 0.35 kcal/mol | 0.831 ± 0.34 kcal/mol
SAGGSAGGSAGGSMITLKIPPSKPEEAEKLAKSLGAELKSFDPNTGVVDINSPPGASLESAGGSAGGSAGGS [r4_3_JUSTAS] | -1.25 ± 0.58 kcal/mol | -1.35 ± 0.74 kcal/mol | -0.929 ± 0.23 kcal/mol
SAGGSMKFSATVEYDPANNIYTVTVPITRKDTGEVIPVSVPVPGSDLTTAEQLAEEIAEKLEKEGLSAGGSA [r2_221_JUSTAS] | 0.627 ± 0.092 kcal/mol | 0.518 ± 0.14 kcal/mol | 0.621 ± 0.19 kcal/mol
SAGGSAMMELEIEIKVEGMTEEELRELAERLAAELTPEGWKVVAVRVERVDEEEGVVRVTVVVEPVSAGGSA [r15_96_TrROS_Hall] | 4.31 ± 0.35 kcal/mol | 3.83 ± 0.16 kcal/mol | 4.18 ± 0.27 kcal/mol
SPVPLDVPPGSRAVLVFRFPDGSRAVAVFDPVTGKATVTFYPPDGSKVTRTFDGPDLADLPPGVERIAPLSA [r9_1110_TrMRF] | 1.77 ± 0.11 kcal/mol | 2.7 ± 0.12 kcal/mol | 2.34 ± 0.14 kcal/mol
SAGGSAGGSAGSMTITRTLPGLTVTFTRLPDPNKETITFKLGDKWTTVPASTLSSSVISLSAGGSAGGSAGG [r11_152_JUSTAS] | -0.434 ± 0.38 kcal/mol | -0.142 ± 0.34 kcal/mol | -0.14 ± 0.21 kcal/mol
SAGGEEKEKLREAIRAALDEAIKEGKKIKKIVIVASPEKKEEIAKLLEEEGLLENLEIEVVSPEELKSAGGS [r16_164_TrROS_Hall] | 1.74 ± 0.072 kcal/mol | 0.665 ± 0.14 kcal/mol | 1.27 ± 0.25 kcal/mol
SAGGMTVPIFVPVDSPEQVEEILEELATPDVKEIVPATLPPLPPPGDKMVVPINITIFPGTGKAVIDASAGG [r13_174_TrMRF] | -1.08 ± 0.12 kcal/mol | 0.991 ± 0.014 kcal/mol | 0.492 ± 0.086 kcal/mol
SAGGSAGGSAMKTITLKDEKGNPLTAEVEKLPNGTIKITITKPGGEKTTYTIPPGEKITLPVSAGGSAGGSA [r18_115_JUSTAS] | 2.34 ± 0.16 kcal/mol | 2.98 ± 0.05 kcal/mol | 2.77 ± 0.14 kcal/mol

Sequence | folding stability dG unfold [1] | folding stability dG unfold [2] | folding stability dG unfold [3]
SAMITITLPNGTPVNVEVTVTETRASPDGTLTTTDYELTFHPPDGVPRRGKGTVLSDPATGTTTITIIESAG [r14_789_JUSTAS] | 1.47 ± 0.041 kcal/mol | 1.45 ± 0.028 kcal/mol | 1.48 ± 0.042 kcal/mol
SAGGSAGGSDGVIQIPIKSDDGEEFKIEIPIEQIKKMMKEGRPIKIWLFDNGKMVRPFEIPIDSAGGSAGGS [r12_991_TrROS] | 0.428 ± 0.12 kcal/mol | 1.06 ± 0.15 kcal/mol | 0.735 ± 0.19 kcal/mol
SAGGSAGGSAGMKPGQKEEVKIPIMGMIPVDGRTFMIRFDITVKAPGAIKIELDIIPGFPSAGGSAGGSAGG [r11_551_TrROS] | 3.26 ± 0.16 kcal/mol | 4.73 ± 0.29 kcal/mol | 4.23 ± 0.21 kcal/mol
SAGYFIMVKFEFPDGGPQEFMIWIPPDENPEKLTKEEAKEVAKSIANSNQDQGGFEVKDVEIMPPDDMSAGG [r19_27_TrROS] | 0.611 ± 0.1 kcal/mol | 2.03 ± 0.088 kcal/mol | 1.58 ± 0.15 kcal/mol
SAGGPLGNLTLDQIVDLVREAFPDLPVRVDVEPIDEETGYVRVTVEPPLPNGGTARAEFILPILPDDSAGGS [r16_564_TrMRF] | 0.787 ± 0.019 kcal/mol | 1.26 ± 0.066 kcal/mol | 1.07 ± 0.076 kcal/mol
SAGGSAGGSAGGSPAVRIPLEVLKELIPPDLVVEVNPVPVPEEGGVLVPVRVVSPEEAASAGGSAGGSAGGS [r4_119_TrMRF] | 0.0931 ± 0.052 kcal/mol | 1.13 ± 0.042 kcal/mol | 0.728 ± 0.18 kcal/mol
SAGGGSVSTSVTPDPATGLVTVTVTLTRTTPTPSPGTTTTTTTITVTVQVPPSYQPTATITVSVPASLSAGG [r13_450_JUSTAS] | 3.49 ± 0.16 kcal/mol | 3.91 ± 0.12 kcal/mol | 3.72 ± 0.082 kcal/mol
SAGKKKKKPKVKEVIIVVKVENMTAEEIAKKLAEELNVEVTKVEVKDGYVTITLKDGSKIKIEVIPEEKSAG [r5_350_TrROS_Hall] | 1.35 ± 0.11 kcal/mol | 1.76 ± 0.069 kcal/mol | 1.58 ± 0.15 kcal/mol
SPAEINIEFDPEEGRLRIKVKLEWPGGDPEPIATHEVPIGNNRYITYPIYKHPDGPWRIEDIDIMPPDELSA [r9_780_TrROS] | 0.283 ± 0.14 kcal/mol | 1 ± 0.15 kcal/mol | 0.727 ± 0.35 kcal/mol
SAGGMVEELDAKDADKIIVGADPDEEVFVLVEVYDDGELLEVVELEPGEEIEIPKDYKVKIVTVPKDLSAGG [r13_978_TrMRF] | 0.119 ± 0.081 kcal/mol | -0.0827 ± 0.63 kcal/mol | -0.293 ± 0.52 kcal/mol
SAGMKIVVTLPDGWTATSDPSTGLITITDPKTGEPLLGKIPSSEPNKVTLYDPNNGKPLRELDIDEVEGSAG [r5_761_JUSTAS] | 0.287 ± 0.026 kcal/mol | 0.748 ± 0.023 kcal/mol | 0.581 ± 0.053 kcal/mol
SGMMNNTTITVTDSEPLPDGSVLTNALTFTSSSAGISSPLDLSLSKTPVSSSTTYTNNGVAPASISLNSLSA [r9_1113_JUSTAS] | 0.678 ± 0.019 kcal/mol | 0.611 ± 0.075 kcal/mol | 0.697 ± 0.049 kcal/mol
SAGGSAGGGTIEIEDPNGVKVEIEIDPDDGYTIIKAFMPDGWVITILMPPEGKIEIETFPLEPPSAGGSAGG [r6_415_TrROS] | 1.92 ± 0.26 kcal/mol | 2.96 ± 0.23 kcal/mol | 2.43 ± 0.35 kcal/mol
SKKKITIEVEVEKDEETGEYTVRIRITVDGKEIEIEIKAKTPEEAKEKAKKLAEELLKKYPDKVKIEIKPSA [r9_1148_TrROS_Hall] | 2.48 ± 0.11 kcal/mol | 1.98 ± 0.029 kcal/mol | 2.21 ± 0.15 kcal/mol
SAGGSAGGSAGGSMTLVIKNGIGYTVIKIKVEYDEETGEFSFELEIETKPVPPNYPVPASAGGSAGGSAGGS [r4_215_TrMRF] | 3.02 ± 0.33 kcal/mol | 4.39 ± 0.33 kcal/mol | 3.99 ± 0.59 kcal/mol
